Measured values: patent US20220363758A1 (SORRENTO THERAPEUTICS, published 2022)
Values joined by “and” are separate entries in the source; they are usually repeats but may differ in a detail not shown here. Identical values can stand only once.

How the values were obtained:
[1] = target: T1, Recombinant human CD38-his tag (human, UniProt P28907 43-300); experiment: SPR (Biacore T200), 1:1 binding model; antigen not named on the sheet, taken as recombinant human CD38-his from Example 9
T1 construct: also called recombinant CD38 antigen; CD38 antigen; not shown: his tag

[2] = target: T1, Recombinant human CD38-his tag; experiment: SPR (Biacore T200), 1:1 binding model; antigen not named on the sheet, taken as recombinant human CD38-his from Example 9; row printed 'BZ1 Pool2 PA', assigned to BZ1S through legends paragraph 161 and paragraph 163
Protocol: Kinetic interactions between bispecific antibodies and CD38 antigen were measured at 25° C. using Biacore T200 surface plasmon resonance (GE Healthcare). Anti-human fragment crystallizable (Fc) antibody (Human Antibody Capture Kit) was immobilized on a Series S CM5 sensor chip to approximately 10000 RU using standard N-Hydroxysuccinimide/1-ethyl-3-(-3-dimethylaminopropyl) carbodiimide hydrochloride (NHS/EDC) coupling methodology. Antibodies (bispecific or mAb, approximately 2 μg/mL) were captured for 60 seconds at a flow rate 10 μL/min. Recombinant human CD38-his tag was serially diluted in running buffer (1×HBS-EP+). All measurements were conducted with a flow rate of 30 μL/min. Surfaces were regenerated with 3M MgCl₂ for 60 s. A 1:1 (Langmuir) binding model was used to fit the data.
Biacore binding kinetics of the CD38×CD3 bispecific antibodies towards each individual antigen as the first and sole binding event were obtained for the target combination: CD38/CD3. The bispecific antibody was immobilized onto a biosensor surface via amine coupled anti human Fc antibodies on a CM5 sensor chip (GE Healthcare) according to the manufacturer's recommendation. […] Some kinetics analysis of the parental mAb (anti-CD38) was performed with 200 seconds association phase and 300 seconds dissociation phase.

| Kd [1] | koff [1] | kon [1] [M⁻¹ s⁻¹] | Kd [2] [nM] | koff [2] [s⁻¹] | kon [2] [M⁻¹ s⁻¹] | Binder |
| --- | --- | --- | --- | --- | --- | --- |
| 1.08 nM and 0.96 nM | 0.00213 s⁻¹ and 0.00205 s⁻¹ | 1.97e+06 |  |  |  | BZ1 heterodimeric antibody (bispecific antibody, human IgG1, lambda, L234A L235A, Isotype IgG1/LALA, knob-in-hole; also called BZ1 bispecific antibody) QVQLVQSGAEVKKPGASVKVSCKASGYTFISYTMHWVRQAPGQGLEWIGYINPRSGYTHYNQKLKDRATLTADKSASTAYMELSSLRSEDTAVYYCARSAYYDYDGFAYWGQGTLVTVSSGGGGSGGGGSGGGGSGGGGSDIQMTQSPSSLSASVGDRVTITCSASSSVSYMNWYQQKPGKAPKRLIYDTSKLASGVPSRFSGSGSGTDFTLTISSLQPEDFATYYCQQWSSNPPTFGGGTKVEIKGGGGSDKTHTCPPCPAPEAAGGPSVFLFPPKPKDTLMISRTPEVTCVVVDVSHEDPEVKFNWYVDGVEVHNAKTKPREEQYNSTYRVVSVLTVLHQDWLNGKEYKCKVSNKALPAPIEKTISKAKGQPREPQVYTLPPSREEMTKNQVSLSCAVKGFYPSDIAVEWESNGQPENNYKTTPPVLDSDGSFFLVSKLTVDKSRWQQGNVFSCSVMHEALHNHYTQKSLSLSPGK heavy: QVQLVESGGGLVKPGGSLRLSCAASGFTFSDDYMSWIRQAPGKGLEWVASVSNGRPTTYYADSVRGRFTISRDNAKNSLYLQMNSLRAEDTAVYYCAREGWSGEFTDWGQGTLVTVSSASTKGPSVFPLAPSSKSTSGGTAALGCLVKDYFPEPVTVSWNSGALTSGVHTFPAVLQSSGLYSLSSVVTVPSSSLGTQTYICNVNHKPSNTKVDKRVEPKSCDKTHTCPPCPAPEAAGGPSVFLFPPKPKDTLMISRTPEVTCVVVDVSHEDPEVKFNWYVDGVEVHNAKTKPREEQYNSTYRVVSVLTVLHQDWLNGKEYKCKVSNKALPAPIEKTISKAKGQPREPQVYTLPPSREEMTKNQVSLWCLVKGFYPSDIAVEWESNGQPENNYKTTPPVLDSDGSFFLYSKLTVDKSRWQQGNVFSCSVMHEALHNHYTQKSLSLSPGK light: not shown |
|  |  |  | 0.909 | 0.00194 | 2.14e+06 | BZ1S (bispecific antibody, human IgG1, lambda, L234A L235A, also called BZ1S heterodimeric antibody; BZ1S bispecific antibody) first polypeptide (anti-CD3 scFv-Fc fusion): QVQLVQSGAEVKKPGASVKVSCKASGYTFISYTMHWVRQAPGQGLEWIGYINPRSGYTHYNQKLKDRATLTADKSASTAYMELSSLRSEDTAVYYCARSAYYDYDGFAYWGQGTLVTVSSGGGGSGGGGSGGGGSGGGGSDIQMTQSPSSLSASVGDRVTITCSASSSVSYMNWYQQKPGKAPKRLIYDTSKLASGVPSRFSGSGSGTDFTLTISSLQPEDFATYYCQQWSSNPPTFGGGTKVEIKGGGGSDKTHTCPPCPAPEAAGGPSVFLFPPKPKDTLMISRTPEVTCVVVDVSHEDPEVKFNWYVDGVEVHNAKTKPREEQYNSTYRVVSVLTVLHQDWLNGKEYKCKVSNKALPAPIEKTISKAKGQPREPQVYTLPPSREEMTKNQVSLSCAVKGFYPSDIAVEWESNGQPENNYKTTPPVLDSDGSFFLVSKLTVDKSRWQQGNVFSCSVMHEALHNHYTQKSLSLSPGK second polypeptide (anti-CD38 heavy chain): QVQLVESGGGLVKPGGSLRLSCAASGFTFSDDYMSWIRQAPGKGLEWVASVSSGRPTTYYADSVRGRFTISRDNAKNSLYLQMNSLRAEDTAVYYCAREGWSGEFTDWGQGTLVTVSSASTKGPSVFPLAPSSKSTSGGTAALGCLVKDYFPEPVTVSWNSGALTSGVHTFPAVLQSSGLYSLSSVVTVPSSSLGTQTYICNVNHKPSNTKVDKRVEPKSCDKTHTCPPCPAPEAAGGPSVFLFPPKPKDTLMISRTPEVTCVVVDVSHEDPEVKFNWYVDGVEVHNAKTKPREEQYNSTYRVVSVLTVLHQDWLNGKEYKCKVSNKALPAPIEKTISKAKGQPREPQVYTLPPSREEMTKNQVSLWCLVKGFYPSDIAVEWESNGQPENNYKTTPPVLDSDGSFFLYSKLTVDKSRWQQGNVFSCSVMHEALHNHYTQKSLSLSPGK third polypeptide (anti-CD38 light chain): not shown |
